Test results from CN111333719A.

Assays:
抗HPV16E7蛋白单抗69A6 [1] = experiment: indirect competition ELISA, peptide at 1μmol/L competes with coated HPV16E7 whole protein for 69A6
抗HPV16E7蛋白单抗69A6 [2] = experiment: indirect competition ELISA, peptide at 10μmol/L competes with coated HPV16E7 whole protein for 69A6

Row | Binder | 抑制率 (抗HPV16E7蛋白单抗69A6 [1]) [%] | 抑制率 (抗HPV16E7蛋白单抗69A6 [2]) [%]
1 | GTLGIVCPICSQKP [重叠肽HPV16E7 85-98] | 48.6 | 92
2 | RAHYNIVTFCCKCDSTLR [重叠肽HPV16E7 49-66] | 15.6 | 16.3
3 | HVDIRTLEDLLMGTLGIV [重叠肽HPV16E7 73-90] | 56.2 | 93.5
4 | LCVQSTHVDIRTLEDLLM [重叠肽HPV16E7 67-84] | 47.3 | 91.6
